Assay results from patent US20160229920A1 (University of Texas, published 2016).

B1: bispecific trastuzumab with anti-HER3 Ab6 scFv (TAb6) (bispecific antibody)
heavy: not shown
light: DIELTQSPSSLSASVGDRVTITCRASQDVNTAVAWYQQKPGKAPKLLIYSASFLYSGVPSRFSGSRSGTDFTLTISSLQPEDFATYYCQQHYTTPPTFGQGTKLEIKRTVAAPSVFIFPPSDEQLKSGTASVVCLLNNFYPREAKVQWKVDNALQSGNSQESVTEQDSKDSTYSLSSTLTLSKADYEKHKVYACEVTHQGLSSPVTKSFNRGEC
notes: Morrison format, expressed in CHO cells; also called bispecific anti-HER2/HER3 antibody
B2: tetrameric anti-HER3 (Ab6tet) (antibody)
heavy: not shown
light: DIELTQPASVSGSPGQSITISCTGTSSDVGSYNVVSWYQQHPGKAPKLIIYEVSQRPSGVSNRFSGSKSGNTASLTISGLQTEDEADYYCCSYAGSSIFVIFGGGTKLEIKRTVAAPSVFIFPPSDEQLKSGTASVVCLLNNFYPREAKVQWKVDNALQSGNSQESVTEQDSKDSTYSLSSTLTLSKADYEKHKVYACEVTHQGLSSPVTKSFNRGEC
notes: Residues 1-19 are the leader; also called tetravalent anti-HER3 antibody; multivalent anti-HER3 antibody

Columns and labels:
[1] = target: T1, HER3 on the plasma membrane of SK-BR-3 and BT-474 breast cancer cells (human, UniProt P21860 20-1342); experiment: fluorescence microscopy of SK-BR-3 cells treated with 50 nM antibody for 15 min at 37 C and chased 45 min; detection with Alexa 555 anti-human IgG, co-stain LAMP-1; the cells carry HER2 and HER3 and the staining of the bispecific is not separated between the two
T1 construct: whole, on cells; also called cell surface HER3
Protocol: Cells were fixed, permeabilized and stained for LAMP-1. […] Scale bars=2 μm.
For fixation, cells were treated with 1.7% (w/v) paraformaldehyde for 10 minutes at 37° C. and then permeabilized with 0.05% (v/v) saponin for 10 minutes at room temperature in PBS. […] Cells were washed twice with PBS between each incubation step and were stored at 4° C. in 1% BSA/PBS.

[2] = target: T1, HER3 on the plasma membrane of SK-BR-3 …; experiment: fluorescence microscopy of SK-BR-3 cells pulsed with 50 nM antibody for 5 min at 37 C and chased 0, 10 or 20 min; detection with Alexa 555 anti-human IgG, co-stain EEA-1 [Continued]

Binder | binding result [1] | binding result [2]
B1 | binds | –
B2 | – | binds
